Laboratory results published in doi:10.1101/2025.05.01.651538 (2025).

What was measured:
[1] = biological target: wild-type 185bp nucleosome (nucleosome with symmetric flanking DNA, human histones) (human)
[2] = biological target: wild-type unmodified 147bp nucleosome (nucleosome core particle, human histones) (human)

B1: KDM5A^CAT (KDM5A 1–801, minimal catalytically active construct) (domain or fragment)
chain: MAGVGPGGYAAEFVPPPECPVFEPSWEEFTDPLSFIGRIRPLAEKTGICKIRPPKDWQPPFACEVKSFRFTPRVQRLNELEAMTRVRLDFLDQLAKFWELQGSTLKIPVVERKILDLYALSKIVASKGGFEMVTKEKKWSKVGSRLGYLPGKGTGSLLKSHYERILYPYELFQSGVSLMGVQMPNLDLKEKVEPEVLSTDTQTSPEPGTRMNILPKRTRRVKTQSESGDVSRNTELKKLQIFGAGPKVVGLAMGTKDKEDEVTRRRKVTNRSDAFNMQMRQRKGTLSVNFVDLYVCMFCGRGNNEDKLLLCDGCDDSYHTFCLIPPLPDVPKGDWRCPKCVAEECSKPREAFGFEQAVREYTLQSFGEMADNFKSDYFNMPVHMVPTELVEKEFWRLVSSIEEDVIVEYGADISSKDFGSGFPVKDGRRKILPEEEEYALSGWNLNNMPVLEQSVLAHINVDISGMKVPWLYVGMCFSSFCWHIEDHWSYSINYLHWGEPKTWYGVPSHAAEQLEEVMRELAPELFESQPDLLHQLVTIMNPNVLMEHGVPVYRTNQCAGEFVVTFPRAYHSGFNQGYNFAEAVNFCTADWLPIGRQCVNHYRRLRRHCVFSHEELIFKMAADPECLDVGLAAMVCKELTLMTEEETRLRESVVQMGVLMSEEEVFELVPDDERQCSACRTTCFLSALTCSCNPERLVCLYHPTDLCPCPMQKKCLRYRYPLEDLPSLLYGVKVRAQSYDTWVSRVTEALSANFNHKKDLIELRVMLEDAEDRKYPENDLFRKLRDAVKEAETCASVAQLL
Kd [1]: 3 µM | Kd [2]: 4 µM
